Experimental data reported in ChEMBL document CHEMBL4229465, “SIRT4 is the last puzzle of mitochondrial sirtuins” (Bioorg Med Chem, 2018).
Values belong to the molecule of their own block, whether it stands above or below them. Where a SMILES comes first, the peptide text is derived from it. The star is where a group is joined. ξ: configuration not given here. Biotin = O=C1N[C@H]2[C@H](CS[C@H]2CCCCC(=O)*)N1; Lipoyl(6ξ) = O=C(CCCCC1CCSS1)*; X2 = CC(O)(CC(=O)O)CC(=O)*; X1 = CC(C)(CC(=O)*)C(=O)O

How the values were obtained:
[1] = target: T1, NAD-dependent protein lipoamidase sirtuin-4, mitochondrial (Homo sapiens) (UniProt Q9Y6E7); assay: Ratio of Kcat to Km at recombinant SIRT4 (unknown origin)
T1 sequence (whole entry): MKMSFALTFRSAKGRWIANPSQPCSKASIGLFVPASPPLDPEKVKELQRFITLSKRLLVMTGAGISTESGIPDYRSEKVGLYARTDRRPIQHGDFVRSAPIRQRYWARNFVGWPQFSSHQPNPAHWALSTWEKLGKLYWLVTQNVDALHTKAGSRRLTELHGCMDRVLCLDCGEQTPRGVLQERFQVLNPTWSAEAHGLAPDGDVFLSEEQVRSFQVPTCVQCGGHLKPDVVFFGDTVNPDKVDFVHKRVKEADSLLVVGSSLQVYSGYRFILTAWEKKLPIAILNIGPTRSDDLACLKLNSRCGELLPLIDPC

[2] = target: T1, NAD-dependent protein lipoamidase sirtuin-4, mitochondrial (Homo sapiens); assay: Ratio of Kcat to Km at human N-terminal His6-tagged SIRT4 (25 to 314 residues) expressed in Escherichia coli codon plus (DE3)
[3] = target: T2, NAD-dependent protein deacetylase sirtuin-2 (Homo sapiens) (UniProt Q8IXJ6); assay: Ratio of Kcat to Km at human SIRT2 (36 to 356 residues) expressed in Escherichia coli rosetta cells
T2 sequence (whole entry): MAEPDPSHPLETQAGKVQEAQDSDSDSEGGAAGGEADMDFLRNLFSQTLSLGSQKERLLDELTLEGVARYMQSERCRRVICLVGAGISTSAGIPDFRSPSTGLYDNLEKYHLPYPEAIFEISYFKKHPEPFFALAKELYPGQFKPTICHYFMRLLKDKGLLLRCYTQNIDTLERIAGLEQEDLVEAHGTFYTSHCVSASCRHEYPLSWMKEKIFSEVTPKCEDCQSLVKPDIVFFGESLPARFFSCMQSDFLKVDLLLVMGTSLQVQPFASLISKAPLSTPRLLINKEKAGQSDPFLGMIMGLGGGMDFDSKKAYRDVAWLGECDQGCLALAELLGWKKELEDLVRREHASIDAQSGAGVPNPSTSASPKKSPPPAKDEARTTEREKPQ

[4] = compound: CC(=O)NCCCC[C@H](NC(=O)[C@H](CCCNC(=N)N)NC(=O)[C@H](C)NC(=O)[C@@H](NC(=O)[C@H](CCC(N)=O)NC(=O)[C@@H](N)CCCCN)[C@@H](C)O)C(=O)N[C@@H](CO)C(=O)N[C@H](C(=O)NCC(=O)NCC(=O)O)[C@@H](C)O; assay: (§1) Activity at recombinant SIRT4 (unknown origin) in presence of NAD by LC-MS analysis; settings: Homo sapiens
[5] = compound: CC[C@H](C)[C@H](NC(=O)[C@@H](NC(=O)[C@H](C)NC(=O)[C@H](CCCCNC(=O)CCCCC1CCSS1)NC(=O)[C@H](CC(=O)O)NC(=O)[C@@H](NC(=O)[C@H](CCC(=O)O)NC(=O)[C@@H](NC(=O)[C@@H](N)CCC(=O)O)[C@@H](C)CC)[C@@H](C)O)[C@@H](C)O)C(=O)NCC(=O)O; assay: as §1; settings: Homo sapiens
[6] = compound: CC[C@H](C)[C@H](NC(=O)[C@@H](NC(=O)[C@H](C)NC(=O)[C@H](CCCCNC(C)=O)NC(=O)[C@H](CC(=O)O)NC(=O)[C@@H](NC(=O)[C@H](CCC(=O)O)NC(=O)[C@@H](NC(=O)[C@@H](N)CCC(=O)O)[C@@H](C)CC)[C@@H](C)O)[C@@H](C)O)C(=O)NCC(=O)O; assay: as §1; settings: Homo sapiens
[7] = compound: CC[C@H](C)[C@H](NC(=O)[C@H](CC(N)=O)NC(=O)[C@H](CCCCNC(C)=O)NC(=O)[C@H](CO)NC(=O)CNC(=O)[C@H](CC(C)C)NC(=O)[C@H](Cc1ccc(O)cc1)NC(=O)[C@@H](N)CO)C(=O)N[C@@H](CCCCN)C(=O)N[C@@H](C)C(=O)N[C@@H](CO)C(=O)N[C@@H](CCC(=O)O)C(=O)O; assay: as §1; settings: Homo sapiens
[8] = compound: C[C@H](NC(=O)[C@@H](NC(=O)[C@H](CCC(N)=O)NC(=O)[C@@H](N)CCCCN)[C@@H](C)O)C(=O)N[C@@H](CCCNC(=N)N)C(=O)N[C@@H](CCCCNC(=O)CCCCC1CCSS1)C(=O)N[C@@H](CO)C(=O)N[C@H](C(=O)NCC(=O)NCC(=O)O)[C@@H](C)O; assay: as §1; settings: Homo sapiens
[9] = compound: C[C@H](NC(=O)[C@@H](NC(=O)[C@H](CCC(N)=O)NC(=O)[C@@H](N)CCCCN)[C@@H](C)O)C(=O)N[C@@H](CCCNC(=N)N)C(=O)N[C@@H](CCCCNC(=O)CCCC[C@@H]1SC[C@@H]2NC(=O)N[C@@H]21)C(=O)N[C@@H](CO)C(=O)N[C@H](C(=O)NCC(=O)NCC(=O)O)[C@@H](C)O; assay: as §1; settings: Homo sapiens
[10] = substrate: CC(=O)NCCCC[C@H](NC(=O)[C@H](CC(C)C)NC(=O)[C@@H](NC(=O)CN)C(C)C)C(=O)N[C@@H](CCC(=O)O)C(=O)N[C@@H](Cc1ccc(O)cc1)C(=O)NCC(=O)N[C@H](C(=O)O)C(C)C; assay: (§2) Activity at human N-terminal His6-tagged SIRT4 (25 to 314 residues) expressed in Escherichia coli codon plus (DE3)
[11] = substrate: CC(C)C[C@H](NC(=O)[C@@H](NC(=O)CN)C(C)C)C(=O)N[C@@H](CCCCNC(=O)CC(C)(C)C(=O)O)C(=O)N[C@@H](CCC(=O)O)C(=O)N[C@@H](Cc1ccc(O)cc1)C(=O)NCC(=O)N[C@H](C(=O)O)C(C)C; assay: as §2
[12] = substrate: CC(C)C[C@H](NC(=O)[C@@H](NC(=O)CN)C(C)C)C(=O)N[C@@H](CCCCNC(=O)CC(C)(O)CC(=O)O)C(=O)N[C@@H](CCC(=O)O)C(=O)N[C@@H](Cc1ccc(O)cc1)C(=O)NCC(=O)N[C@H](C(=O)O)C(C)C; assay: as §2
[13] = substrate: CC(C)C[C@H](NC(=O)[C@@H](NC(=O)CN)C(C)C)C(=O)N[C@@H](CCCCNC(=O)CCCCC1CCSS1)C(=O)N[C@@H](CCC(=O)O)C(=O)N[C@@H](Cc1ccc(O)cc1)C(=O)NCC(=O)N[C@H](C(=O)O)C(C)C; assay: as §2

Molecule: C[C@H](NC(=O)[C@@H](NC(=O)[C@H](CCC(N)=O)NC(=O)[C@@H](N)CCCCN)[C@@H](C)O)C(=O)N[C@@H](CCCNC(=N)N)C(=O)N[C@@H](CCCCNC(=O)CCCC[C@@H]1SC[C@@H]2NC(=O)N[C@@H]21)C(=O)N[C@@H](CO)C(=O)N[C@H](C(=O)NCC(=O)NCC(=O)O)[C@@H](C)O (H-KQTARK(Biotin)STGG-OH)
- Ratio [1]: 0.74 s⁻¹ M⁻¹

Molecule: CC(C)C[C@H](NC(=O)[C@@H](NC(=O)CN)C(C)C)C(=O)N[C@@H](CCCCNC(=O)CCCCC1CCSS1)C(=O)N[C@@H](CCC(=O)O)C(=O)N[C@@H](Cc1ccc(O)cc1)C(=O)NCC(=O)N[C@H](C(=O)O)C(C)C (stereo partly drawn) (H-GVLK(Lipoyl(6ξ))EYGV-OH)
- Ratio [2]: 170 s⁻¹ M⁻¹

Molecule: CC[C@H](C)[C@H](NC(=O)[C@@H](NC(=O)[C@H](C)NC(=O)[C@H](CCCCNC(=O)CCCCC1CCSS1)NC(=O)[C@H](CC(=O)O)NC(=O)[C@@H](NC(=O)[C@H](CCC(=O)O)NC(=O)[C@@H](NC(=O)[C@@H](N)CCC(=O)O)[C@@H](C)CC)[C@@H](C)O)[C@@H](C)O)C(=O)NCC(=O)O (stereo partly drawn) (H-EIETDK(Lipoyl(6ξ))ATIG-OH)
- Ratio [1]: 7.65 s⁻¹ M⁻¹

Molecule: H-SYLGSK(Ac)NIKASE-OH
- Ratio [1]: 0.0064 s⁻¹ M⁻¹

Molecule: H-KQLATK(Ac)AARKS-OH
- Ratio [3]: 3130 s⁻¹ M⁻¹

Molecule: H-KQTARK(Ac)STGG-OH
- Ratio [1]: 0.083 s⁻¹ M⁻¹

B1: NAD-dependent protein lipoamidase sirtuin-4, mitochondrial (Homo sapiens), Q9Y6E7 (protein)
chain: T1 sequence (whole entry)
- Km [4]: > 2500 µM
- Km [5]: 239 µM
- kcat [5]: 0.0018 s⁻¹
- Km [6]: > 2500 µM
- Km [7]: > 2500 µM
- Km [8]: 814 µM
- kcat [8]: 0.0019 s⁻¹
- Km [9]: 719 µM
- kcat [9]: 0.0005 s⁻¹
- Km [10]: 2340 µM
- kcat [10]: 0.0087 s⁻¹
- Km [11]: 17.7 µM
- kcat [11]: 0.0073 s⁻¹
- Km [12]: 9.7 µM
- kcat [12]: 0.0053 s⁻¹
- Km [13]: 10.1 µM
- kcat [13]: 0.0017 s⁻¹

Now from value to molecule:

- Ratio [2]: 412 s⁻¹ M⁻¹
Molecule: CC(C)C[C@H](NC(=O)[C@@H](NC(=O)CN)C(C)C)C(=O)N[C@@H](CCCCNC(=O)CC(C)(C)C(=O)O)C(=O)N[C@@H](CCC(=O)O)C(=O)N[C@@H](Cc1ccc(O)cc1)C(=O)NCC(=O)N[C@H](C(=O)O)C(C)C (H-GVLK(X1)EYGV-OH)

- Ratio [2]: 3.7 s⁻¹ M⁻¹
Molecule: H-GVLK(Ac)EYGV-OH

- Ratio [1]: 2.3 s⁻¹ M⁻¹
Molecule: C[C@H](NC(=O)[C@@H](NC(=O)[C@H](CCC(N)=O)NC(=O)[C@@H](N)CCCCN)[C@@H](C)O)C(=O)N[C@@H](CCCNC(=N)N)C(=O)N[C@@H](CCCCNC(=O)CCCCC1CCSS1)C(=O)N[C@@H](CO)C(=O)N[C@H](C(=O)NCC(=O)NCC(=O)O)[C@@H](C)O (stereo partly drawn) (H-KQTARK(Lipoyl(6ξ))STGG-OH)

- Ratio [2]: 546 s⁻¹ M⁻¹
Molecule: CC(C)C[C@H](NC(=O)[C@@H](NC(=O)CN)C(C)C)C(=O)N[C@@H](CCCCNC(=O)CC(C)(O)CC(=O)O)C(=O)N[C@@H](CCC(=O)O)C(=O)N[C@@H](Cc1ccc(O)cc1)C(=O)NCC(=O)N[C@H](C(=O)O)C(C)C (stereo partly drawn) (H-GVLK(X2)EYGV-OH)

- Ratio [1]: 0.2 s⁻¹ M⁻¹
Molecule: H-EIETDK(Ac)ATIG-OH
